Assay results published in US20230407373A1 (priority 2020, published 2023).
Where two headings read alike, the source gives them in different places.

Key:
Format in all cases: binding
gRNA of HCoV-OC43 = details: for target (spectral count) / background (spectral count): type g_36_m, 36 hpi, Probe I; for target (spectral count): HCoV-OC43-infected HCT-8 cells; for background (spectral count): uninfected-probe control; for target (spectral count, OC43 Probe I RNP capture) / background (spectral count, no-probe control): type n_48_v: 48 hours post-infection; for target (spectral count, OC43 Probe I RNP capture): infected cells, unweighted spectral count; for background (spectral count, no-probe control): no-probe control on infected cells
SARS-CoV-2 gRNA = details: for target (unweighted spectral count of the protein in the RNP capture): LC-MS/MS, Probe I sample (first 199 lines of Table 2)
[1] = system: SARS-CoV-2 gRNA and sgRNAs; details: for background (unweighted spectral count in control): no-probe control pull-down, used as background for Probe II
HCoV-OC43 gRNA and sgRNA = details: for target (unweighted spectral count, OC43 Probe II capture) / target (spectral count) / background (spectral count): 36 hpi; for target (unweighted spectral count, OC43 Probe II capture): type n_36_v, FDR<10%; for target (unweighted spectral count, OC43 Probe II capture) / target (unweighted spectral count): tested against no-probe control; for target (unweighted spectral count): OC43 Probe II, infected cells; for target (unweighted spectral count, OC43 Probe II) / background (unweighted spectral count, no-probe control): type n_48_v, 48 hpi; for target (unweighted spectral count, OC43 Probe II): OC43 Probe II capture on infected cells; for background (unweighted spectral count, no-probe control): no-probe control on infected cells; for target (spectral count) / background (spectral count): type s_36_m, Probe II; for target (spectral count): HCoV-OC43-infected HCT-8 cells; for background (spectral count): uninfected-probe control

| Molecule | target (spectral count) (gRNA of HCoV-OC43) | background (spectral count) (gRNA of HCoV-OC43) | target (spectral count, OC43 Probe I RNP capture) (gRNA of HCoV-OC43) | background (spectral count, no-probe control) (gRNA of HCoV-OC43) | enrichment in SARS-CoV-2 Probe I RNP capture (SARS-CoV-2 gRNA) | enrichment in SARS-CoV-2 Probe II RNP capture [1] | background (unweighted spectral count in control) [1] | target (unweighted spectral count, OC43 Probe II capture) (HCoV-OC43 gRNA and sgRNA) | target (unweighted spectral count) (HCoV-OC43 gRNA and sgRNA; 12 hpi (type n_12_v)) | target (unweighted spectral count) (HCoV-OC43 gRNA and sgRNA; 24 hpi (type n_24_v)) | target (unweighted spectral count, OC43 Probe II) (HCoV-OC43 gRNA and sgRNA) | background (unweighted spectral count, no-probe control) (HCoV-OC43 gRNA and sgRNA) | target (spectral count) (HCoV-OC43 gRNA and sgRNA) | background (spectral count) (HCoV-OC43 gRNA and sgRNA) | target (unweighted spectral count of the protein in the RNP capture) (SARS-CoV-2 gRNA) |
| --- | --- | --- | --- | --- | --- | --- | --- | --- | --- | --- | --- | --- | --- | --- | --- |
| NONO: host protein, UniProt Q15233 (protein, UniProt Q15233 1-471, looked up) Non-POU domain-containing …: MQSNKTFNLEKQNHTPRKHHQHHHQQQHHQQQQQQPPPPPIPANGQQASSQNEGLTIDLKNFRKPGEKTFTQRSRLFVGNLPPDITEEEMRKLFEKYGKAGEVFIHKDKGFGFIRLETRTLAEIAKVELDNMPLRGKQLRVRFACHSASLTVRNLPQYVSNELLEEAFSVFGQVERAVVIVDDRGRPSGKGIVEFSGKPAARKALDRCSEGSFLLTTFPRPVTVEPMDQLDDEEGLPEKLVIKNQQFHKEREQPPRFAQPGSFEYEYAMRWKALIEMEKQQQDQVDRNIKEAREKLEMEMEAARHEHQVMLMRQDLMRRQEELRRMEELHNQEVQKRKQLELRQEEERRRREEEMRRQQEEMMRRQQEGFKGTFPDAREQEIRMGQMAMGGAMGINNRGAMPPAPVPAGTPAPPGPATMMPDGTLGLTPPTTERFGQAATMEGIGAIGGTPPAFNRAAPGAEFAPNKRRRY | 28 | 6 | 36 | 3 | found in the SARS-CoV-2 experiments | found in the SARS-CoV-2 experiments | 1 | 23 | 4 | 14 | 31 | 3 | 23 | 4 | – |
| FAM120A: host protein, UniProt Q9NZB2 (protein, UniProt Q9NZB2 1-1118, looked up) Constitutive coactivator of …: MGVQGFQDYIEKHCPSAVVPVELQKLARGSLVGGGRQRPPQTPLRLLVDADNCLHRLYGGFYTDWVSGGQWNHMLGYLAALAKACFGGNIELFVFFNGALEKARLHEWVKRQGNERQTAQQIVSHVQNKGTPPPKVWFLPPVCMAHCIRLALIRFHVKVAQSIEDHHQEVIGFCRENGFHGLVAYDSDYALCNIPYYFSAHALKLSRNGKSLTTSQYLMHEVAKQLDLNPNRFPIFAALLGNHILPDEDLASFHWSLLGPEHPLASLKVRAHQLVLPPCDVVIKAVADYVRNIQDTSDLDAIAKDVFQHSQSRTDDKVIRFKRAIGYYSATSKPMSFHPPHYLAARPGPFGMPGMVPPHVPPQMLNIPQTSLQAKPVAPQVPSPGGAPGQGPYPYSLSEPAPLTLDTSGKNLTEQNSYSNIPHEGKHTPLYERSSPINPAQSGSPNHVDSAYFPGSSTSSSSDNDEGSGGATNHISGNKIGWEKTGSHSEPQARGDPGDQTKAEGSSTASSGSQLAEGKGSQMGTVQPIPCLLSMPTRNHMDITTPPLPPVAPEVLRVAEHRHKKGLMYPYIFHVLTKGEIKIAVSIEDEANKDLPPAALLYRPVRQYVYGVLFSLAESRKKTERLAFRKNRLPPEFSPVIIKEWAAYKGKSPQTPELVEALAFREWTCPNLKRLWLGKAVEDKNRRMRAFLACMRSDTPAMLNPANVPTHLMVLCCVLRYMVQWPGARILRRQELDAFLAQALSPKLYEPDQLQELKIENLDPRGIQLSALFMSGVDMALFANDACGQPIPWEHCCPWMYFDGKLFQSKLLKASREKTPLIDLCDGQADQAAKVEKMRQSVLEGLSFSRQSHTLPFPPPPALPFYPASAYPRHFGPVPPSQGRGRGFAGVCGFGGPYGETVATGPYRAFRVAAASGHCGAFSGSDSSRTSKSQGGVQPIPSQGGKLEIAGTVVGHWAGSRRGRGGRGPFPLQVVSVGGPARGRPRGVISTPVIRTFGRGGRYYGRGYKNQAAIQGRPPYAASAEEVAKELKSKSGESKSSAMSSDGSLAENGVMAEEKPAPQMNGSTGDARAPSHSESALNNDSKTCNTNPHLNALSTDSACRREAALEAAVLNKEE | 23 | 2 | 29 | 2 | found in the SARS-CoV-2 experiments | found in the SARS-CoV-2 experiments | – | 18 | 4 | 18 | 33 | 2 | 19 | 2 | – |
| MATR3: host protein, UniProt P43243 (protein, UniProt P43243 2-847, looked up) Matrin-3: SKSFQQSSLSRDSQGHGRDLSAAGIGLLAAATQSLSMPASLGRMNQGTARLASLMNLGMSSSLNQQGAHSALSSASTSSHNLQSIFNIGSRGPLPLSSQHRGDADQASNILASFGLSARDLDELSRYPEDKITPENLPQILLQLKRRRTEEGPTLSYGRDGRSATREPPYRVPRDDWEEKRHFRRDSFDDRGPSLNPVLDYDHGSRSQESGYYDRMDYEDDRLRDGERCRDDSFFGETSHNYHKFDSEYERMGRGPGPLQERSLFEKKRGAPPSSNIEDFHGLLPKGYPHLCSICDLPVHSNKEWSQHINGASHSRRCQLLLEIYPEWNPDNDTGHTMGDPFMLQQSTNPAPGILGPPPPSFHLGGPAVGPRGNLGAGNGNLQGPRHMQKGRVETSRVVHIMDFQRGKNLRYQLLQLVEPFGVISNHLILNKINEAFIEMATTEDAQAAVDYYTTTPALVFGKPVRVHLSQKYKRIKKPEGKPDQKFDQKQELGRVIHLSNLPHSGYSDSAVLKLAEPYGKIKNYILMRMKSQAFIEMETREDAMAMVDHCLKKALWFQGRCVKVDLSEKYKKLVLRIPNRGIDLLKKDKSRKRSYSPDGKESPSDKKSKTDGSQKTESSTEGKEQEEKSGEDGEKDTKDDQTEQEPNMLLESEDELLVDEEEAAALLESGSSVGDETDLANLGDVASDGKKEPSDKAVKKDGSASAAAKKKLKKVDKIEELDQENEAALENGIKNEENTEPGAESSENADDPNKDTSENADGQSDENKDDYTIPDEYRIGPYQPNVPVGIDYVIPKTGFYCKLCSLFYTNEEVAKNTHCSSLPHYQKLKKFLNKLAEERRQKKET | 57 | 4 | 41 | 3 | found in the SARS-CoV-2 experiments | found in the SARS-CoV-2 experiments | – | 39 | 11 | 20 | 39 | 3 | 39 | 4 | 56 |
| MOV10: host protein, UniProt Q9HCE1 (protein, UniProt Q9HCE1 1-1003, looked up) Helicase MOV-10: MPSKFSCRQLREAGQCFESFLVVRGLDMETDRERLRTIYNRDFKISFGTPAPGFSSMLYGMKIANLAYVTKTRVRFFRLDRWADVRFPEKRRMKLGSDISKHHKSLLAKIFYDRAEYLHGKHGVDVEVQGPHEARDGQLLIRLDLNRKEVLTLRLRNGGTQSVTLTHLFPLCRTPQFAFYNEDQELPCPLGPGECYELHVHCKTSFVGYFPATVLWELLGPGESGSEGAGTFYIARFLAAVAHSPLAAQLKPMTPFKRTRITGNPVVTNRIEEGERPDRAKGYDLELSMALGTYYPPPRLRQLLPMLLQGTSIFTAPKEIAEIKAQLETALKWRNYEVKLRLLLHLEELQMEHDIRHYDLESVPMTWDPVDQNPRLLTLEVPGVTESRPSVLRGDHLFALLSSETHQEDPITYKGFVHKVELDRVKLSFSMSLLSRFVDGLTFKVNFTFNRQPLRVQHRALELTGRWLLWPMLFPVAPRDVPLLPSDVKLKLYDRSLESNPEQLQAMRHIVTGTTRPAPYIIFGPPGTGKTVTLVEAIKQVVKHLPKAHILACAPSNSGADLLCQRLRVHLPSSIYRLLAPSRDIRMVPEDIKPCCNWDAKKGEYVFPAKKKLQEYRVLITTLITAGRLVSAQFPIDHFTHIFIDEAGHCMEPESLVAIAGLMEVKETGDPGGQLVLAGDPRQLGPVLRSPLTQKHGLGYSLLERLLTYNSLYKKGPDGYDPQFITKLLRNYRSHPTILDIPNQLYYEGELQACADVVDRERFCRWAGLPRQGFPIIFHGVMGKDEREGNSPSFFNPEEAATVTSYLKLLLAPSSKKGKARLSPRSVGVISPYRKQVEKIRYCITKLDRELRGLDDIKDLKVGSVEEFQGQERSVILISTVRSSQSFVQLDLDFNLGFLKNPKRFNVAVTRAKALLIIVGNPLLLGHDPDWKVFLEFCKENGGYTGCPFPAKLDLQQGQNLLQGLSKLSPSTSGPHSHDYLPQEREGEGGLSLQVEPEWRNEL | 26 | 1 | 25 | 1 | found in the SARS-CoV-2 experiments | found in the SARS-CoV-2 experiments | 1 | 24 | – | 35 | 37 | 1 | 24 | 1 | 16 |
